In patent publication US20190256595A1 (INSTITUT NATIONAL DE LA SANT ET DE LA RECHERCH M DICAL …, published 2019):
Changes are numbered by the printed parent chain.

T1: recombinant soluble CD160-His Tag (human, UniProt O95971 26-160)
T1 construct: also called sCD160; CD160 soluble isoform; not shown: His tag
T1 sequence: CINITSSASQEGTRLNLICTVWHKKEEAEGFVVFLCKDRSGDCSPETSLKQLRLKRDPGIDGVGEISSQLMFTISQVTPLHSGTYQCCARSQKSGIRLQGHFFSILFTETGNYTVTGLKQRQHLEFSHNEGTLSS

T2: CD160-TM isoform (CD160 transmembrane isoform) (human)
T2 chain: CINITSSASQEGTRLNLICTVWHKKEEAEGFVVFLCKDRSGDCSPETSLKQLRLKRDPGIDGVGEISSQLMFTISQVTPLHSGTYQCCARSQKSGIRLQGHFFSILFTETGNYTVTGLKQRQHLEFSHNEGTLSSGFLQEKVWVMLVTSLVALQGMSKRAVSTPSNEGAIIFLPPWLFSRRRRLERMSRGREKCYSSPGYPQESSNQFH

T3: CD160 GPI-anchored isoform expressed on CHO cells (human, UniProt O95971 26-160, GPI anchor at the C terminus end)
T3 construct: also called CHO-CD160-GPI
T3 sequence: T1 sequence

T4: Flag-tagged CD160-TM isoform expressed on HEK cells (human)
T4 construct: In the immunoprecipitation the protein came from a 1% NP40 lysate of these cells; Bands were read as mono-, di- and quadrimeric forms; also called HEK-CD160TM; Flag-tagged CD160TM receptor; not shown: Flag tag
T4 chain: T2 chain

B1: A12 antibody (fully human A12 antibody) (antibody, human IgG1, V domains shown)
VH: EVQLVESGGSLVKPGGSLRLSCAASGFTFSNYSMNWVRQAPGKGLEWISYIYGSSRYISYADFVKGRFTISRDNATNSLYLQMNSLRAEDTAVYYCVRSYYGGMDVWGRGTLVTVSS
VL: QSVLTQPASVSGSPGQSITISCAGTSSDVGGYYGVSWYQQHPGKAPKLMIYYDSYRPSGVSNRFSGSKSGNTASLTISGLQAEDEADYYCSSSTYYSTRVFGGGTKLEK
notes: Fully human aglycosylated antibody selected by phage display on HEK-CD160TM cells; also called hu A12
B2: B6 antibody (fully human B6 antibody) (antibody, human IgG1, V domains shown)
VH: B1 VH with S33Y, Y50G, S59N
VL: B1 VL with Y33S, G34Y, S93Y
notes: From the same phage display selection as A12
B3: murine chimeric version of A12 antibody (antibody, V domains shown)
VH: B1 VH
VL: B1 VL
notes: also called muA12; mu A12

Assays:
[1] = target: T1, recombinant soluble CD160-His Tag; test: sandwich ELISA: coated antibody, soluble CD160-His, anti-His-HRP
Experimental: FIG. 4: sCD160 is recognized by the antibodies CL1-R2, R&D 6700 and RB312 but not A12. 1 ug per well of antibody was coated overnight on a 96 well maxisorb plate. After saturation with PBS-5%BSA, lOng of recombinant soluble CD160-His Tag were added to each well and incubated 2h at room temperature. After washing, revelation was done with anti-His-HRP then TMB substrate.

[2] = target: T2, CD160-TM isoform (CD160 transmembrane …); test: flow cytometry on IL2-activated human PBMC, gated CD3-CD56+ NK cells
Experimental: (§1) CHO and HEK transfected cells were labelled with the anti-CD160-GPI mAb CL1-R2 or BY55, the fully human A12 or B6 antibody or their corresponding isotypic control IgG. […] Cell acquisition was performed on a CytoFlex cytometer and results were analysed with FlowJo software.
For PBMC, CD160 labelling was performed as above. Following washes and addition of normal mouse serum, cells were incubated with a mix of CD8-FITC, CD56-PCS, CD3-APC and CD4-PC7 mAbs. After cell acquisition, analyses were performed to distinguish the CD3⁺CD4⁺ and CD3⁺CD8⁺ T lymphocytes, and the CD3⁻CD56⁺ NK cells within the lymphocytes population.

[3] = target: T3, CD160 GPI-anchored isoform expressed on …; test: flow cytometry on CHO-CD160-GPI cells
Experimental: as §1
(§2) After selection on HEK-CD160TM cells, A12 and B6 specificity for CD160TM isoform was first verified by flow cytometry on both CD160-GPI and CD160TM expressing transfectants. As shown on FIG. 1, a positive labelling was obtained with A12 and B6 antibodies on HEK-CD160TM cells but not on CHO-CD160-GPI cells. Conversely, the anti-CD160-GPI mAb CL1-R2 or BY55 gave a positive labelling only on CD160-GPI-expressing cells, ruling out the possibility that A12 and B6 negativity was linked to the non-expression of CD160-GPI on CHO transfectants.

[4] = target: T4, Flag-tagged CD160-TM isoform expressed …; test: flow cytometry on HEK-CD160TM cells
Experimental: as §1, §2

[5] = target: T1, recombinant soluble CD160-His Tag; test: sandwich ELISA: coated antibody, soluble CD160-His, anti-His-HRP (data not shown)
[6] = target: T4, Flag-tagged CD160-TM isoform expressed …; test: immunoprecipitation from HEK-CD160TM lysate, anti-Flag Western blot, non-reducing
Experimental: FIG. 3: Assessment of A12 specificity by immunoprecipitation. Post-nuclear lysates were prepared from HEK-CD160TM cells and subjected to immunoprecipitation with either mouse (mu IgG) or human (hu Ig) isotypic control IgG, chimeric murine A12 (mu A12) or fully human A12 (hu A12) antibody. […] Arrows indicate CD160TM-related signals.
HEK-CD160TM cells, that express a Flag-tagged version of CD160TM isoform, were lysed in 1% NP40 lysis buffer. Post-nuclear lysates were prepared and subjected to immuno-precipitation with the fully human A12 antibody or mouse chimeric A12. Human and mouse IgG were used as negative controls, respectively. Immune complexes were further collected with protein G Sepharose beads. Following washes, non-reducing sample buffer (devoid of reducing agent) was added and samples were finally heat-denatured. Proteins were separated by SDS-10% PAGE, electrically transferred on a nitrocellulose membrane and subjected to immuno-blotting with and anti-Flag mAb plus HRP-coupled goat anti-mouse IgGs. Revelation was performed by enhanced chemiluminescence and images acquired with an ImageQuant LAS device.

Binder	binding result [1]	binding result [2]	binding result [3]	binding result [4]	binding result [5]	binding result [6]
B1	no binding	binds	no binding	binds		
B2			no binding	binds	no binding	
B3						binds
